# In patent US20220281973A1 (TRUEBINDING, published 2022):
# Positions count from the first letter of the chain named.
# T1: hLRIG1 Peptide 71 (human)
# T1 construct: 20 amino acid peptide of the LRIG1 peptide library
# T1 peptide: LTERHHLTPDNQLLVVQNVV
# T2: hLRIG1 Peptide 70 (human)
# T2 construct: 20 amino acid peptide of the LRIG1 peptide library
# T2 peptide: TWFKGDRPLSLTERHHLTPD
# T3: human LRIG1 extracellular domain fused to a linker-spaced 6-histidine tag, LRIG1-ECD-His (R&D systems, … (human, UniProt Q96JA1 35-794))
# T3 construct: Bought protein; also called human LRIG1-His; hLRIG1-His; not shown: linker-spaced 6-histidine tag
# T3 sequence: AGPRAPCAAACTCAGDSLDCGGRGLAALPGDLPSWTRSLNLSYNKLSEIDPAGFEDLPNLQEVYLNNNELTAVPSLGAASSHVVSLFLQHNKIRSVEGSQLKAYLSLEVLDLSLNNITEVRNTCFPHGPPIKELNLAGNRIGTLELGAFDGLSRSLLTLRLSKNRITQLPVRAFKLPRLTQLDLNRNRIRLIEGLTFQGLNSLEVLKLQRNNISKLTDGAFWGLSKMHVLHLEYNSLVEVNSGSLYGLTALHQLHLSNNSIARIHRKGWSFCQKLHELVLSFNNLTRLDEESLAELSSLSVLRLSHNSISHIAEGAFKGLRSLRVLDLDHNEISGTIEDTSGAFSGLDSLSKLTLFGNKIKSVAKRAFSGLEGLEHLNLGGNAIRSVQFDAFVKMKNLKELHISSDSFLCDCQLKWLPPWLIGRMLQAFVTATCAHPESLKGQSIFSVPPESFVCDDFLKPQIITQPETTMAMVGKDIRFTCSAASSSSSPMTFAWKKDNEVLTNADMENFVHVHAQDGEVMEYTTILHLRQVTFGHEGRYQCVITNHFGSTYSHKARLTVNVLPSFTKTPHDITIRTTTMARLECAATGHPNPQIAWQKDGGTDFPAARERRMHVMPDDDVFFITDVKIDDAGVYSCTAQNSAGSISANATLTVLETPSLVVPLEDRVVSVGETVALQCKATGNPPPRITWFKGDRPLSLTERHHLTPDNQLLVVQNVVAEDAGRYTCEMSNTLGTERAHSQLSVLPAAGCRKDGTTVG
# B1: 802.2B7.2F9 (antibody, V domains shown)
# VH: EVQLVESGGGLAKPGGSLKLSCAASGFTFSASAMSWVRQTPEKRLEWVATISDGGSYTYYPDNVKGRFTISRDNAKSNLYLQMSHLKSEDTAMYYCAGGVSTVINFDYWGQGTTLTVSS
# VL: DVVMTQTPLSLPVSLGDQVSISCRSSQSIVHSNGNTYLEWYLQKPGQSPKLLIYKVSNRFSGVPDRFSGSGSGTDFTLKISRVEAEDLGVYYCFQGSHVPLTFGGGTKLELK
# notes: Mouse hybridoma monoclonal
# B2: 802.4H12.2A9 (antibody, V domains shown)
# VH: EVQLVESGGGLVKPGGSLKLSCAASGFTFSSYTMSWVRQTPEKTLEWVATISDGGRYTYYPDNVKGRFTISRDNANNNLYLQMSHLKSEDTAMYYCARGWLLRNFDFWGQGTTLTVSS
# VL: B1 VL with V19A, G105A
# notes: Mouse hybridoma monoclonal
# B3: 802.2F4.2C7 (antibody, V domains shown)
# VH: EVQLQQSGTVLARPGASVKMSCKASGYNFINSWMHWVKQRPGQGLEWIGAFYPGNSDTRYNQKFMGKAKLTAVTSASTAYMEVSSLTNEDSAVYYCTELGGDYWGQGTTLTVSS
# VL: DVVMTQTPLSLPVSLGDQASISCRSSQSLVHNDGNTYLHWFLQKPGQSPKLLIHKVSNRFSGVPDRFSGSGSGTDFTLKISRVEAEDLGVYFCSQSTHVPYTFGGGTKLEIK
# notes: Mouse hybridoma monoclonal
# B4: 802.3E6.2F9 (antibody, V domains shown)
# VH: QVQLQQSGAELMKPGASVKISCKVTGHTFSSYWIEWVKQRPGHGLEWIGEILPGKGNTEYNEKFKGKATFTADTSSNTAYMQLSSLTSEDSAVYYCARNFDVWGAGTTVTVSS
# VL: B3 VL with N32R, D33N, N35H, F41Y, H54Y, G71V, A85G, L88V
# notes: Mouse hybridoma monoclonal
# B5: 802.1H3.2A4 (antibody, V domains shown)
# VH: QVQLQQPGDELVKPGASVKLSCKASGYTFTSFWIHWVKQRPGQGLEWIGNIYPGSSSANYNEKFKSKATLTVDTSSSTAYMQLSSLTSDDSAVYYCARSSYRYSYYSWGQGTTLTVSS
# VL: B1 VL with V19A, Y37F, K50N, T102S, G105A
# notes: Mouse hybridoma monoclonal
# B6: 802.3D5.2G4 (antibody, V domains shown)
# VH: EVKLEESGGGLVQPGGSMTLSCVASGFTFSNYWVNWVRQSPEKGLEWVAQIRLKSENYPTHYAESVKGRFTVSRDDSKSSVYLQMNNLRAEDTGIYYCTGRGYSNYAWGQGTTLTVSS
# VL: B1 VL with V2I, V19A, V99F, L101W, L111I
# notes: Mouse hybridoma monoclonal
# B7: 802.4B6.2E11 (antibody, V domains shown)
# VH: B5 VH with G8D, D9T, K23R, F32Y, H35N, S55T, A58T, T74P, A97S, S104T
# VL: B1 VL with V19A, H31Q, N35I, Q43K, K50N, F60L, E86D, G105A
# notes: Mouse hybridoma monoclonal
# B8: 802.4B6.2F6 (antibody, V domains shown)
# VH: QVQLQQSGPELVKPGASVKLSCKASGYTFTSYDINWVKQRPGQGLEWIGWIYPRDGTTKYNEKFKGKATLTVDTSSSTAYMEIHSLTSEDSAVYFCAREDYGSSFHNWGQGTTLTVSS
# VL: NIVMTQSPKSMSMSVGERVTLSCKASEDVDTYVSWYQQKPNQSPKLLIYGASNRYTGVPDRFTGSGSATDFTLTISSVQAEDLADYYCGQSYSYPWTFGGGTKLEIK
# notes: Mouse hybridoma monoclonal
# B9: 802.3B10.2C10 (antibody, V domains shown)
# VH: DVQLQESGPGLVKPSLSLSLTCTVTGYSITSGYDWHWIRHFPGNILEWMGYISYSGYTNYNPSLKSRISITHDTSKNHFFLKLNSVTTEDTATYYCARDSNWYFDVWGAGTTVTVSS
# VL: B8 VL with S14L, T20I, S22N, D28N, N41E, A80G, Y92H, S93N, W96Y, G100S
# notes: Mouse hybridoma monoclonal
# B10: 802.4C12.3C5 (antibody, V domains shown)
# VH: QVQLQQSGGELMKPGASVKLSCKATGYTFTGYWIEWVKQRPGHGLEWIGEILPGSGRTYYNEKFKGKATFTADTSSNTAYMQLSSLTTEDSAIYYCAREIYDGHYEAWYAYWGQGTLVTVSA
# VL: DVVMTQTPLSLSVTIGQPASISCKSSQSLLYSDGKTYLNWLQQRPGQSPKRLMYQVSKLDPGIPDRFSGSGSETDFTLEISRVEAEDLGVYYCLQGTYYPHTFGSGTKLEIK
# notes: Mouse hybridoma monoclonal
# B11: 802.2F11.2B6 (antibody, V domains shown)
# VH: QVQLQQSGAELMKPGASVKLSCKATGYTFTGYWIEWVKQRPGHGLEWIGEILPGSGSTHYNEKFKGKATFTADTSSNTAYIQLSSLTTEDSAIYYCEREVYDNDEGAWFANWGQGTLVTVSA
# VL: B10 VL with E79K
# notes: Mouse hybridoma monoclonal
# B12: 802.3E6.2H9 (antibody, V domains shown)
# VH: QVQKQQPGAELVMPGASVKLSCKASGYTFTSYWMHWVMQRPGQGLEWIGDIDPSDSYTNYNQQFKGKATLTVDISSSSAYMQLSSLTFEDSAVYYCARARVDFDYWGRGTTLTVSS
# VL: EIVLTQSPALLAASPGDKVTITCSVSSSISSSTLHWYQQKSGTSPKPWIYGTSNLASGVPVRFSGSGSGTSYSLTISSMEAEDAATYYCQQWSGYPLTFGAGTKLELK
# notes: Mouse hybridoma monoclonal
# B13: 802.2B7.2D9 (antibody, V domains shown)
# VH: QVQLKQSGPGLVQPSQSLSITCTVSGFSLTSYGVHWVRQSPGKGLEYLGVIWSGGSTDYNAAFISRLSISKDNSKSQVFFKMNSLRADDTAIYYCARNWAYYSNHYYVMDYWGQGTSVTVSS
# VL: DIQMTQSPASLYAFVGETVTITCRASENIYSYLAWYHQKQGKSPQLLVYNSNSLAEGVPLRFSGSGSGTQFSLKINSLQPEDFGNYYCQHHYVTPLTFGGGTKLEMK
# notes: Mouse hybridoma monoclonal
# Target: T1, hLRIG1 Peptide 71
# Assay: peptide ELISA of Example 2, as told in Example 3
# Method: (§1) To identify the epitopes to which LRIG1 antibodies with and without VISTA-LRIG1 blocking activity bound, a library of 20 amino acid peptides representing portions of LRIG1 was produced, and the ability to bind LRIG1 antibodies was evaluated by ELISA. At least 2 ug/ml of hLRIG1 peptide in 50 μl of PBS or 0.1 ug/ml of full-length human LRIG1 protein (R&D Systems) in 100 μl of PBS was added to the wells of a 96-well ELISA plate (Thermo Fisher, 44-2404-21). After incubating the plate at 4° C. overnight, the plate was washed three times with 300 μl of PBST per well. The plate was then blocked for an hour with 200 μl of 2% BSA in PBST per well at room temperature with gentle rocking. Thereafter, the 2% BSA in PBST was removed and 100 μl of 0.1 ug/ml of antibody in 2% BSA in PBST was added to the wells. The plate was incubated for an hour at room temperature with gentle rocking and then washed three times with 300 μl of PBST per well. Afterwards, 100 μl of anti-mouse IgG-HRP (1:4000) (Jackson ImmunoResearch) or anti-rat IgG HRP (1:4000) (Jackson ImmunoResearch) was added to the wells. The plate was incubated for 30 minutes at room temperature with gentle rocking and then washed three times with 300 μl of PBST per well. 100 μl of TMB substrate (Fisher Scientific, 34029) was then added to each well. The reaction was stopped with 50 μl of 1 M HCl (VWR) per well. The plate was read using a plate reader (Molecular Devices) at absorbance of 450 nm, and signal greater than 0.25 OD was considered evidence of peptide binding.
row,binding result,Binder
1,binds,B1
2,binds,B2

# Target: T2, hLRIG1 Peptide 70
# Assay: peptide ELISA of Example 2, as told in Example 3
# Method: as §1
row,binding result,Binder
1,binds,B1
2,binds,B2

# Target: T3, human LRIG1 extracellular domain fused …
# Assay: LRIG1 ECD ELISA-positive hybridoma antibodies tested in blocking ELISA on plate-bound LRIG1-ECD-His
# Method: Positively scoring wells were evaluated for the ability to block association of LRIG1 and VISTA. To identify LRIG1-targeted antibodies with the ability to block the interaction of LRIG1 and VISTA, purified LRIG1 and VISTA proteins were incubated in the presence of LRIG1-immunization hybridoma supernatants described above, or without antibody, and protein interaction was evaluated by ELISA. Purified human LRIG1 extracellular domain fused to a HIS tag (R&D Systems) was diluted in phosphate buffered saline (PBS) (Corning) to a concentration of 3 μg/ml and 100 μl was added to each well of a 96-well ELISA plate (Thermo Fisher, 44-2404-21). After incubating the plate at 4° C. overnight, the plate was washed three times with 300 μl of PBS with 0.05% TWEEN (VWR) (PBST) per well. The plate was then blocked for an hour with 200 μl of 2% bovine serum albumin (BSA) (Sigma) in PBST per well at room temperature with gentle rocking. Thereafter, the 2% BSA in PBST was removed and 50 μl of hybridoma supernatant diluted to 3.3 ug/mL was added to the wells. The plate was incubated for 10 minutes at room temperature with gentle rocking. Afterwards, 100 ul of 50 nM oligomerized VISTA in 100 ul PBS buffer was added per well. VISTA oligomerization was performed by Klickmer formation. Briefly, 5 nM Klickmer (Immudex) was incubated with 200 nM hVISTA-Fc-Avi-Biotin in PBS and incubated for one hour. The plate was incubated for an hour at room temperature with gentle rocking. Thereafter, the plate was washed three times with 300 μl of PBST per well, and 100 μl of avidin-HRP (1:1000) (Jackson ImmunoResearch) was then added to each well and the plate was incubated at room temperature for 30 minutes with gentle rocking. Thereafter, the plate was washed three times with 300 μl of PBST per well. 100 μl of TMB substrate (Fisher Scientific, 34029) was then added to each well. The reaction was stopped with 50 μl of 1 M HCl (VWR) per well. The plate was read using a spectrophotometer (Molecular Devices) at absorbance of 450 nm. Percent blockade of LRIG1-VISTA interaction was calculated as the fraction of signal obtained in each experimental samples of the no antibody sample less background signal.
row,binding result,Binder
1,binds,B3
2,binds,B4
3,binds,B5
4,binds,B6
5,binds,B1
6,binds,B7
7,binds,B2
8,binds,B8
9,binds,B9
10,binds,B10
11,binds,B11
12,binds,B12
13,binds,B13
